T1: Glycoprotein of Ravn virus in whole irradiated virus (Ravn virus, UniProt Q1PDC7 19-681)
T1 sequence: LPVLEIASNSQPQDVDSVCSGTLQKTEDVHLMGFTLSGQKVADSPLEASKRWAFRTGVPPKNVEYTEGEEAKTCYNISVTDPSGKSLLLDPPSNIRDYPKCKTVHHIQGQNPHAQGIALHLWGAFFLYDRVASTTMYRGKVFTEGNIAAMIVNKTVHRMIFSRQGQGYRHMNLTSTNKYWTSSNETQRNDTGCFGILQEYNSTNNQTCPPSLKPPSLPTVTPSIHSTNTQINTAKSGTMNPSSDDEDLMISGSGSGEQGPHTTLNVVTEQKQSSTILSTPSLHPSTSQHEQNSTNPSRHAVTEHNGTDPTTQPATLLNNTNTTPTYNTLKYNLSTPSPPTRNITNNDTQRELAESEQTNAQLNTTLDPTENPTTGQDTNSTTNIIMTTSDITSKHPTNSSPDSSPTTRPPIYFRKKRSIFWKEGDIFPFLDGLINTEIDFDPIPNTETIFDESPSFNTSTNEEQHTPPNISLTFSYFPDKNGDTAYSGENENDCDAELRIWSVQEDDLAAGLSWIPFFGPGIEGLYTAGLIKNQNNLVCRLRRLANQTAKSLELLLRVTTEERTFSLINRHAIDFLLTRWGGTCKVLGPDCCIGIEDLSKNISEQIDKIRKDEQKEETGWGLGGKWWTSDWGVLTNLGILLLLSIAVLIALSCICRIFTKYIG

T2: Glycoprotein of Marburg virus isolate Musoke in whole irradiated virus (Marburg virus, isolate Musoke, UniProt P35253 19-681)
T2 sequence: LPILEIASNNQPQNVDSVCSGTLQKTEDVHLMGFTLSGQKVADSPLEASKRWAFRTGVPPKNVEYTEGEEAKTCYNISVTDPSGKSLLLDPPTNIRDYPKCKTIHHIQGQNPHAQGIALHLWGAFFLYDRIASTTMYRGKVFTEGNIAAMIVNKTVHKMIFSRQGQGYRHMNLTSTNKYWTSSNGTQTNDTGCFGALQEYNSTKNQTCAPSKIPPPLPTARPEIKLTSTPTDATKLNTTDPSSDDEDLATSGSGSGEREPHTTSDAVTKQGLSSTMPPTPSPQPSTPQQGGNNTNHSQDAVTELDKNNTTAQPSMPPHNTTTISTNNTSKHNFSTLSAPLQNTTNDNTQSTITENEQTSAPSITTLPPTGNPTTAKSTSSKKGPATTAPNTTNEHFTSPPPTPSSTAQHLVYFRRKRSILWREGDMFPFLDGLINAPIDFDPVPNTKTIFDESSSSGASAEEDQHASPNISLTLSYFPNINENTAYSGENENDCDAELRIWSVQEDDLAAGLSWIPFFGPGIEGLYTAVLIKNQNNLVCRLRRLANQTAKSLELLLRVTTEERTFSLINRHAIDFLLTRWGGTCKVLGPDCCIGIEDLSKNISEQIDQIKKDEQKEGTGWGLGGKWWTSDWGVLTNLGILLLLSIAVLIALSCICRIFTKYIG

B1: scFv R4G7 (scFv, V domains shown)
VH: EVQLLESGGDLVQPGESLRLSCVVSGISFSNHGMTWVRQAPGKGLDWVSSIDSDGGGTFYADSVKGRFTISRDDSNNTVSLQMNSLRVEDTAVYYCAARHEYSDYYWGRGVPVTVSS
VL: DIELTQSPSILSVSPGERATLSCRASQSVGNRLAWYHQRPGQAPRLLIYGASSRPTGIPDRFSASGSGTEFTLTISSLEPEDVGVYYCQQNSKWPLTFGGGTKVEIK
B2: scFv R4G8 (scFv, V domains shown)
VH: EVQLVESGGGLVQPGESLRLSCVVSGLSFSNHGVTWVRQAPGKGLDWVSSIDTDGGGTFYGDSVKGRFTISRDNSKSTVSLEMNSLRVEDTAVYYCAARQEYSDYYWGRGVLVTVSS
VL: DIELTQSPAILSLSPGERATLLCRASQNVGNRLAWYHQRPGQAPRLLIYGASSRPTGIPDRFSGSGSGTEFTLTISSLEPEDVGVYYCQQDSNWPLTFGGGTRVEIK
B3: scFv R4G11 (scFv, V domains shown)
VH: EVQLVQSGGGLVQPGESLRLSCVVSGLSFSNHGVTWVRQAPGKGLDWVSSIDTDGGGTFYGDSVKGRFTISRDDSKNTVSLEMNSLRVEDTAVYYCAARQEYSDYYWGRGVPVTVSS
VL: DIELTQSPSTLSVSPGERATLSCRASQSVGSRLAWYHQRPGQAPRLLIYGASSRPTGIPDRFSGSGSGTEFTLTISSLEPEDVGLYYCQQNSKWPLTFGGGTKVEIK
B4: scFv R4H12 (scFv, V domains shown)
VH: QVQLLESGGGLVQPGESLRLSCVVSGLSFSNHGVTWVRQAPGKGLDWVSSIDTDGGGTFYGDSVKGRFTISRDDSKNTVSLEMNSLRVEDTAVYYCAARQEYSDYYWGRGVPVTVSS
VL: EIELTQSPSTLSVSPGERATLSCRASQSVGSRLAWYHQSPGQAPRLLIYGASSRPTGIPDRFSASGSGTEFTLTISSLEPEDVGLYYCQQNSKWPLTFGGGTKVEIK
B5: scFv R3C4 (scFv, V domains shown)
VH: QVQLEQSGAEVKKPGASVKVSCKASGFTSGSYAISWVRQAPGQGLEWMGVIIPLVGVTNYAEKFQGRVTFTADTSTSTAYMELSSLRSEDTATYFCARDPYCSGNGCYGWYDVWGPGVLVTVSS
VL: DIELTQSPSSLSASVGDKVTISCRASQYIKSWLAWYQQKPGKAPKLLIYKASSLQSGVPSRFSGSGSGTDFTLTITNVQPEDFATYYCQQYDSAPFTFGPGTKLDIR
B6: scFv R4B11 (scFv, V domains shown)
VH: QVQLEQSGAEVREPGASVKVSCKASGLTSGSYAITWVRQAPGQGLEWMGVIIPLVGVTNYAEKFQGRVTFTADTSTSTAYMELTSLRSDDTATYYCARDPFCSGNGCYGYYDVWGPGVKVTVSS
VL: DIELTQSPSSLSASVGDRVTITCRASQDISSWLAWYQQKPGKAPKLLISSASTLQSGVPSRFSGSGSGTDFTLTINSLQSEDFATYYCQQYNSVPLTFGGGTKVEMK
B7: scFv R3H2 (scFv, V domains shown)
VH: EVQLLESGGGLVQPGESLRLSCVVSGLSFSNHGVTWVRQAPGKGLDWVSSIDTDGGGTFYGDSVKGRFTISRDDSKNTVSLEMNSLRVEDTAVYYCAARQEYSDYYWGRGVPVTVSS
VL: DIELTQSPAILSLSPGERATLLCRASQNVGNRLAWYHQRPGQAPRLLIYGASSRPTGIPDRFSGSGSGTEFTLTISSLEPEDVGVYYCQQDSNWPLTFGGGTRVEIK
B8: R4B11 scFv-Fc (Fc fusion)
VH: QVQLEQSGAEVREPGASVKVSCKASGLTSGSYAITWVRQAPGQGLEWMGVIIPLVGVTNYAEKFQGRVTFTADTSTSTAYMELTSLRSDDTATYYCARDPFCSGNGCYGYYDVWGPGVKVTVSS
VL: DIELTQSPSSLSASVGDRVTITCRASQDISSWLAWYQQKPGKAPKLLISSASTLQSGVPSRFSGSGSGTDFTLTINSLQSEDFATYYCQQYNSVPLTFGGGTKVEMK

These binders were tested against MARV Ci67 GP1-649 (Marburg virus, isolate Ci67) (assay: SPR (BIAcore 3000), GP1-649 amine-coupled on CM5, scFv in solution).

Q: For B1, which Kd is on record?
A: 4.6 nM

Q: What about the koff of the same binder?
A: 0.000379 s⁻¹

Q: And the kon?
A: 81900 M⁻¹ s⁻¹

Q: How did the Kd turn out when B2 was run?
A: 68 nM

Q: And the koff?
A: 0.0063 s⁻¹

Q: What about the kon of the same binder?
A: 92300 M⁻¹ s⁻¹

Q: How did the Kd turn out when B3 was run?
A: 6.3 nM

Q: And the koff?
A: 0.000475 s⁻¹

Q: What about the kon of the same binder?
A: 75000 M⁻¹ s⁻¹

Q: Which results are given for B4?
A: Kd: 3.9 nM; koff: 0.000565 s⁻¹; kon: 146000 M⁻¹ s⁻¹

Q: B5 was tested. Which Kd did it give?
A: 33 nM

Q: And the koff?
A: 0.000386 s⁻¹

Q: And the kon?
A: 11600 M⁻¹ s⁻¹

Q: How did the Kd turn out when B6 was run?
A: 4.6 nM

Q: And the koff?
A: 0.000407 s⁻¹

Q: And the kon?
A: 87600 M⁻¹ s⁻¹

Q: Which results are given for B7?
A: Kd: 155 nM; koff: 0.000993 s⁻¹; kon: 6390 M⁻¹ s⁻¹

These binders were tested against T1, Glycoprotein of Ravn virus in whole … (assay: Western blot on whole irradiated virus, reduced).

Q: Does B8 bind?
A: no binding (tested: 1 ug/ml)

Each binder was assayed against T2, Glycoprotein of Marburg virus isolate … (assay: Western blot of scFv-Fc on whole irradiated virus, reduced).

Q: Does B8 bind?
A: binds
